Experimental data from patent US8329637B2, “Method for the treatment of automimmune diseases comprising administering rapamycin and IL-10” (priority 2002, dated 2012).

Key:
NOD mice = assay: Diabetes inhibition study in NOD mice; format: in vivo, mouse
Method: (B) Pre-diabetic mice were treated daily starting from 11 weeks of age with either rapamycin, rapamycin+IL-10 or IL-10 alone.
NOD mice were treated from 11 weeks to 31 weeks of age with IL-10 (IL-10, n=7 mice), or rapamycin (RAPA, n=13 mice), or rapamycin+IL-10 (RAPA/IL-10 n=16 mice), or vehicle (CNTR, n=22 mice). Diabetes incidence, monitored by glycemia levels, was stable at least up to 60 weeks of age. Administration of rapamycin alone reduced diabetes incidence from 95% to 46%.
In our proposed protocol, down-regulation of inflammation should be achieved by IL-10, and blockade of T effector cell expansion should be achieved by rapamycin. Neither IL-10 nor rapamycin prevent T cell priming and therefore they should allow induction of antigen-specific T regulatory cells, and as described below, IL-10 should promote the induction and expansion of Tr1 cells. We investigated the effect of rapamycin alone or in combination with IL-10 in treating autoimmunity in the NOD mouse a model for type I diabetes. […] Inhibition of type I diabetes was evaluated by treating NOD mice daily starting at 11 weeks of age (i.e. pre-diabetic mice with periinsultis) with rapamycin, rapamycin+IL-10, or IL-10 alone. […]
Mice. […] Glucose level in the tail venous blood was quantified using Glucometer Elite system (Bayer, Wuppertal, Germany). […]
Diabetes inhibition study. […] Diabetes incidence was monitored by blood glucose levels.

[1] = test system: Tr1 and CD4+CD25+ T cells; assay: Tr cell content (cytokine profile by CBA, CD4+CD25+ by FACS) in spleen, PLN and IIC of treated NOD mice; format: cell-based, mouse; details: islet infiltrating cells (FIG. 11)
Method: Cytokine production by CD4^+ T cells (left panels) and percentages of CD4^+CD25^+ T cells (right panels) were evaluated by CBA and FACS analysis respectively, in the spleen (A), pancreatic lymph nodes (PLN) (B), and islet infiltrating cells (IIC) (C) of untreated-diabetic NOD mice (gray bars), rapamycin-treated mice (white bars), or rapamycin+IL-10-treated mice (black bars). […] The percentages of CD4^+CD25^+ T cells were higher in the spleen, PLN, and IIC of both mice treated with rapamycin alone or rapamycin+IL-10 (black bars). Therefore, in rapamycin+IL-10 treated mice, Tr1 cells are present in the spleen and CD4^+CD25^+ Tr cells are present in the spleen, lymph nodes, and pancreas.
The mechanisms underlying long-term tolerance were analysed in tolerant mice of 50 weeks of age or older. […] However, the proportion of splenic CD4^+ T cells producing IL-4 was the same in both untreated and treated mice. […]
Flow cytometry. Cells were stained with the indicated Abs (all from BD), and were analyzed with a FACScan flow cytometer equipped with CellQuest software (BD).
Cytokine measurement. Cytokines present in the collected supernatants were quantified by sandwich ELISA or flow cytometry based assay (CBA), using standard commercially available kits (BD). The percentage of cells producing specific cytokines was measured by intracellular staining. […]

[2] = test system: allogeneic C57BL/6 β-islets transplanted in diabetic Balb/c mice; assay: Allogeneic β-islet transplantation (C57BL/6 into Balb/c), graft survival monitored by glycemia; format: in vivo, mouse
Method: Balb/c mice that had been rendered diabetic by streptozotocin injection were transplanted under the kidney capsule with purified allogeneic C57BL/6 β-islets. Mice were not treated (control, n=13 mice), or treated with rapamycin+antiTac+IL-10 (IL-10 protocol, n=16 mice) or rapamycin+antiTac+FK506 (Edmonton protocol, n=4 mice) for 30 days. Graft survival was monitored by glycemia levels. A graft was considered rejected when glycemia was higher than 250 mg/dl.
Balb/c mice that had been rendered diabetic by streptozotocin injection were transplanted under the kidney capsule with purified allogeneic C57BL/6 β-islets. Mice were not treated (control, n=8 mice), or treated with rapamycin in combination with IL-10 (rapa+IL10, n=8 mice) or IL10 only (n=4 mice). Graft survival was monitored by glycemia levels.
Allogeneic β-islet transplantation. A model of fully mismatched murine islet allotransplantation (C57BL/6 into Balb/C) was used.
Balb/c mice that had been rendered diabetic by streptozotocin injection were transplanted under the kidney capsule with purified allogeneic C57BL/6 β-islets.
Treatment of transplanted mice. […] Diabetes incidence was monitored by blood glucose levels.

Molecule	diabetes incidence (NOD mice; NOD mice treated from 11 to 31 weeks of age, vehicle 95% (FIG. 10A))	CD4+CD25+ T cells as share of CD4+ T cells isolated from IIC [1]	effect on the development of diabetes (NOD mice; NOD mice treated from 11 to 31 weeks of age (FIG. 10A))	long-term graft survival ([2]; Balb/c mice treated for 30 days, without antiTac (FIG. 2))	prevention of graft rejection ([2]; Balb/c mice, FIG. 2)
CO[C@H]1C[C@@H]2CC[C@@H](C)[C@@](O)(O2)C(=O)C(=O)N2CCCC[C@H]2C(=O)O[C@H]([C@H](C)C[C@@H]2CC[C@@H](O)[C@H](OC)C2)CC(=O)[C@H](C)/C=C(\C)[C@@H](O)[C@@H](OC)C(=O)[C@H](C)C[C@H](C)/C=C/C=C/C=C/1C [rapamycin]	46%	~100%			
IL-10: Human IL-10 (BD Biosciences), cytokine, 0.05 mg/Kg IP twice a day (protein, UniProt P22301 19-178, looked up) Interleukin-10: SPGQGTQSENSCTHFPGNLPNMLRDLRDAFSRVKTFFQMKDQLDNLLLKESLLEDFKGYLGCQALSEMIQFYLEEVMPQAENQDPDIKAHVNSLGENLKTLRLRLRRCHRFLPCENKSKAVEQVKNAFNKLQEKGIYKAMSEFDIFINYIEAYMTMKIRN			no significant effect	30%	not efficient in preventing graft rejection
